T1: botulinum neurotoxin serotype B (BoNT/B) (Clostridium botulinum, UniProt P10844 2-1291)
T1 sequence: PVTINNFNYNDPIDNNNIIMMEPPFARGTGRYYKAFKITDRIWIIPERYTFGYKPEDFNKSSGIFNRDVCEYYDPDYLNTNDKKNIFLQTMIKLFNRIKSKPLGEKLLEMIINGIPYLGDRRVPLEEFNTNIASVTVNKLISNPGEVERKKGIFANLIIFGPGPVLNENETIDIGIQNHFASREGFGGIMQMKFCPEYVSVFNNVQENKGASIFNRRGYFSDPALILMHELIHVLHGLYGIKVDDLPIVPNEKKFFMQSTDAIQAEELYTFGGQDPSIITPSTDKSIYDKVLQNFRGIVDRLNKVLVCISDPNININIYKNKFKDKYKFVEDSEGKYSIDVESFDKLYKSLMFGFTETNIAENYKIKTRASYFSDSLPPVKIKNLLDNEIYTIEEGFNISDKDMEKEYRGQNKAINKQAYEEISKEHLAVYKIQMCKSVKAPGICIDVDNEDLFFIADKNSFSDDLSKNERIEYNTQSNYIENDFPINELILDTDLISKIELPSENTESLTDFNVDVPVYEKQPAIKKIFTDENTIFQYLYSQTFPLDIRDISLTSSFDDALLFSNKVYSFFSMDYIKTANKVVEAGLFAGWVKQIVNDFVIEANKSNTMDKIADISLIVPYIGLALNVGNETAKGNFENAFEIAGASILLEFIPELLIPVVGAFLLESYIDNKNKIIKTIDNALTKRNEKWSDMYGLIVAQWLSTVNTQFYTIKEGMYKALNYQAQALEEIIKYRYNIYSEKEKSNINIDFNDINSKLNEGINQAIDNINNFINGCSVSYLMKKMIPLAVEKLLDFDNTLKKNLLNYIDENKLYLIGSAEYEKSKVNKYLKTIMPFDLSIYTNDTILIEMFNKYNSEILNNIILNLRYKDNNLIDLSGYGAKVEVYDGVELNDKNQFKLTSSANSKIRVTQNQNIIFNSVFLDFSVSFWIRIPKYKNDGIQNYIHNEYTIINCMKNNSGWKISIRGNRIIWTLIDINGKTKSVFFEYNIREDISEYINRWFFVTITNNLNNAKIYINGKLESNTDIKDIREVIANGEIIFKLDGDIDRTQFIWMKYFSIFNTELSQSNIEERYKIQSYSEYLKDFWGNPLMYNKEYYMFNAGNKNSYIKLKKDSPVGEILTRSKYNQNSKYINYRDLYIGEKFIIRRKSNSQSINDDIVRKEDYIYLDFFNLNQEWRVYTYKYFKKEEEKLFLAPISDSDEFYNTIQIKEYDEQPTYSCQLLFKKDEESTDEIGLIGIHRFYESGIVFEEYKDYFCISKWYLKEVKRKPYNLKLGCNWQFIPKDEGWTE

B1: rHu-BF5-A6 (antibody, V domains shown)
VH: EVQLQQSGAELVKPGASVKLSCTASGFNIKDTFMHWVKQRPEQGLEWIGRIDPANGNTEYDPKFQGKATITADTSSNTVNLQLSSLTSEDTAVYYCASGGELGFPYWGQGTLVTVSA
VL: DIQMTQSPASLSASVGETVTITCRASGNIHNYLAWYQQKQGKSPQLLVYNAKTLADGVPSRFSGSGSGTQYSLKINSLQPEDFGSYYCQHFWSTPWTFGGG
B2: rHu-BF5-B1 (antibody, V domains shown)
VH: B1 VH
VL: B1 VL

How the values were obtained:
[1] = target: T1, botulinum neurotoxin serotype B (BoNT/B); experiment: capture ELISA, antibody coated at 5.0 ug/ml
[2] = target: T2, botulinum neurotoxin serotype A (BoNT/A) (Clostridium botulinum, UniProt P0DPI0 2-1296); experiment: capture ELISA, antibody coated at 5.0 ug/ml
[3] = target: T1, botulinum neurotoxin serotype B (BoNT/B); experiment: capture ELISA titration, antibody at 5.0 ug/ml
[4] = target: T2, botulinum neurotoxin serotype A (BoNT/A); experiment: capture ELISA titration, antibody at 5.0 ug/ml
[5] = target: T1, botulinum neurotoxin serotype B (BoNT/B); experiment: direct ELISA, […], antibody at 1.25 ug/ml
[6] = target: T2, botulinum neurotoxin serotype A (BoNT/A); experiment: direct ELISA, […], antibody at 1.25 ug/ml

T2 sequence (P0DPI0 2-1296 limits assumed): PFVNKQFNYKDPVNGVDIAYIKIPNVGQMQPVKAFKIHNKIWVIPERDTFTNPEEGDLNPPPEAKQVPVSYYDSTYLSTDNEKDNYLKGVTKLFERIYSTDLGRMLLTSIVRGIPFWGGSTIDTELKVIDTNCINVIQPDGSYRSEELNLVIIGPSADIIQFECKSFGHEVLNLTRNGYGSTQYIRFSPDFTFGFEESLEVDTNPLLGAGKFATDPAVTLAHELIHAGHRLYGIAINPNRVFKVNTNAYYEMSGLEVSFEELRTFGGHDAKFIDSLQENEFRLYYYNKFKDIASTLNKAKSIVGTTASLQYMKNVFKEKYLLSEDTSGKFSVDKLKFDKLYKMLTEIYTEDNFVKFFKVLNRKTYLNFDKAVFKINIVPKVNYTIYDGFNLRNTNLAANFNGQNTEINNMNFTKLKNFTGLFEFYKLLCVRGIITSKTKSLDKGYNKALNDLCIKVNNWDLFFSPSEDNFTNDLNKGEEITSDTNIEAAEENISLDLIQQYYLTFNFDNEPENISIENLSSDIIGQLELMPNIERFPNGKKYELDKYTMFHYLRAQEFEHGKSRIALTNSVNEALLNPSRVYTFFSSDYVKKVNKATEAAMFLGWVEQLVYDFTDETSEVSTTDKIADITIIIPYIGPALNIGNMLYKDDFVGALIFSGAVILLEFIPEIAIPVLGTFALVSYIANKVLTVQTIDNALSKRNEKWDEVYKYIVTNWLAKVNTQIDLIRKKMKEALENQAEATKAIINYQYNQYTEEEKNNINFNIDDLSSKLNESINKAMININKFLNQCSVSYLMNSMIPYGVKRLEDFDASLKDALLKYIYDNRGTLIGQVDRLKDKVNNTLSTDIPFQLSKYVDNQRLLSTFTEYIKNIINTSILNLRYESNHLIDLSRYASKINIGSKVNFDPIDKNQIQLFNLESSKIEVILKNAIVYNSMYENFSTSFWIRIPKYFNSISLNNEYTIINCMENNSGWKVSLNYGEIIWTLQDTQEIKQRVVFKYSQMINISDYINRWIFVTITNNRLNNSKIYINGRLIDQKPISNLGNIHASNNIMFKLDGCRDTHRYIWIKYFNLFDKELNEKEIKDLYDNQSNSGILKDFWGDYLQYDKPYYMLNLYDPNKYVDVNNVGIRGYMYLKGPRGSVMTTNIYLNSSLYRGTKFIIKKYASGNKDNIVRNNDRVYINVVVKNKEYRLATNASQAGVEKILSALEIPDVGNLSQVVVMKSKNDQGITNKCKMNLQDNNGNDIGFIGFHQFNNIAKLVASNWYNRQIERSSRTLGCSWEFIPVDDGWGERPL

| Binder | detection limit [1] [ng] | detection limit [2] [ng] | lowest amount detected [3] [ng] | lowest amount detected [4] [ng] | detection limit [5] [ng] | detection limit [6] [ng] |
| --- | --- | --- | --- | --- | --- | --- |
| B1 | 0.35 | 0.29 | 0.4 | 0.3 | 11.8 | 9.4 |
| B2 | 0.35 | 0.29 | 0.4 | 0.3 | 11.8 | 9.4 |

Source: patent publication US20070218516A1 (UNITED STATES OF AMERICA AS REPRESENTED BY THE SERCRETARY …, published 2007)
